Measurements published in patent EP4628097A1 (Innovent Biologics (Suzhou) Co., Ltd., dated 2025).

Assays:
human VEGF165 [1] = target: T1, human VEGF165 (human, UniProt P15692-4 27-191); test: ELISA, relative binding activity; IEX04-012 about 40 mg/mL in F1, 40 C, 1 week
T1 construct: all are put under this molecule; also called VEGF A; VEGFA

human Ang2 [2] = target: T2, human Ang2 (human, UniProt O15123 19-496, limits assumed); test: as above
T2 construct: Bought proteins; also called hAng2-biotin; Ang2-Bio (Sino)
T2 sequence (looked up): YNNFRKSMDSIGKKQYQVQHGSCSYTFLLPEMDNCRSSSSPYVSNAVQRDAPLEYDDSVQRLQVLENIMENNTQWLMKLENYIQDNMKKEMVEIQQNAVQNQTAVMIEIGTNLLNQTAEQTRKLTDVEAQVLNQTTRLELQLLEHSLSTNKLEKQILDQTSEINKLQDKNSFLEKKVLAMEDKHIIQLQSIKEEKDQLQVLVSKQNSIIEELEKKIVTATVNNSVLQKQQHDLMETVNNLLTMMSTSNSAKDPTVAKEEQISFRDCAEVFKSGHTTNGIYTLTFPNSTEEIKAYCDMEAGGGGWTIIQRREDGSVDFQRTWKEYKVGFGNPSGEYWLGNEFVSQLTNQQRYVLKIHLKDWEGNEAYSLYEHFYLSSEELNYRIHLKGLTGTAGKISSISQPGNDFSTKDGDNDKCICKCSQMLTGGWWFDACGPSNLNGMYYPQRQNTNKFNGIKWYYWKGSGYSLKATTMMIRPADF

human VEGF165 [3] = target: T1, human VEGF165; test: ELISA, relative binding activity; 120 mg/mL formula, 25 C, 1M
human Ang2 [4] = target: T2, human Ang2; test: as above
human VEGF165 [5] = target: T1, human VEGF165; test: ELISA, relative binding activity; 150 mg/mL formula, T0
human Ang2 [6] = target: T2, human Ang2; test: as above
human VEGF165 [7] = target: T1, human VEGF165; test: ELISA, relative binding activity; IEX04-012 about 40 mg/mL in F2, 40 C, 2 weeks
human Ang2 [8] = target: T2, human Ang2; test: as above
human VEGF165 [9] = target: T1, human VEGF165; test: ELISA, relative binding activity; IEX04-012 about 40 mg/mL in F8, 40 C, 1 week
human Ang2 [10] = target: T2, human Ang2; test: as above
human VEGF165 [11] = target: T1, human VEGF165; test: ELISA, relative binding activity; IEX04-012 about 40 mg/mL in F10, 40 C, 0 weeks
human Ang2 [12] = target: T2, human Ang2; test: as above
human VEGF165 [13] = target: T1, human VEGF165; test: ELISA, relative binding activity; 120 mg/mL formula, 25 C, 2M
human Ang2 [14] = target: T2, human Ang2; test: as above
human VEGF165 [15] = target: T1, human VEGF165; test: ELISA, relative binding activity; IEX04-012 about 40 mg/mL in F1, 40 C, 0 weeks
human Ang2 [16] = target: T2, human Ang2; test: as above
human VEGF165 [17] = target: T1, human VEGF165; test: ELISA, relative binding activity; IEX04-012 about 40 mg/mL in F9, 40 C, 1 week
human Ang2 [18] = target: T2, human Ang2; test: as above
human VEGF165 [19] = target: T1, human VEGF165; test: ELISA, relative binding activity; IEX04-012 about 40 mg/mL in F7, 40 C, 1 week
human Ang2 [20] = target: T2, human Ang2; test: as above
human VEGF165 [21] = target: T1, human VEGF165; test: ELISA, relative binding activity; final formula 40 mg/mL, 25 C, 1M
human Ang2 [22] = target: T2, human Ang2; test: as above
human VEGF165 [23] = target: T1, human VEGF165; test: ELISA, relative binding activity; IEX04-012 about 40 mg/mL in F6, 40 C, 2 weeks
human Ang2 [24] = target: T2, human Ang2; test: as above
human VEGF165 [25] = target: T1, human VEGF165; test: ELISA, relative binding activity; IEX04-012 about 40 mg/mL in F10, 40 C, 2 weeks
human Ang2 [26] = target: T2, human Ang2; test: as above

T1 sequence (P15692 other isoform, or with tags, fused parts or gaps limits assumed): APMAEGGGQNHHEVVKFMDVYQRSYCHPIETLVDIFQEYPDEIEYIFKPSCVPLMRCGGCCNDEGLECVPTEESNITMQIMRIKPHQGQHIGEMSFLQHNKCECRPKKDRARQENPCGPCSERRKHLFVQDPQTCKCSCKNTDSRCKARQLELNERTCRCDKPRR

Relative binding Activity to VEGF (ELISA, %) (human VEGF165 [1]): 98%
Relative binding Activity to Ang2 (ELISA, %) (human Ang2 [2]): 103%
Relative binding Activity to VEGF A (ELISA, %) (human VEGF165 [3]): 96%
Relative binding Activity to Ang2 (ELISA, %) (human Ang2 [4]): 93%
Relative binding Activity to VEGF A (ELISA, %) (human VEGF165 [5]): 92%
Relative binding Activity to Ang2 (ELISA, %) (human Ang2 [6]): 103%
Relative binding Activity to VEGF (ELISA, %) (human VEGF165 [7]): 99%
Relative binding Activity to Ang2 (ELISA, %) (human Ang2 [8]): 102%
Relative binding Activity to VEGF (ELISA, %) (human VEGF165 [9]): 101%
Relative binding Activity to Ang2 (ELISA, %) (human Ang2 [10]): 92%
Relative binding Activity to VEGF (ELISA, %) (human VEGF165 [11]): 100%
Relative binding Activity to Ang2 (ELISA, %) (human Ang2 [12]): 100%
Relative binding Activity to VEGF A (ELISA, %) (human VEGF165 [13]): 92%
Relative binding Activity to Ang2 (ELISA, %) (human Ang2 [14]): 84%
Relative binding Activity to VEGF (ELISA, %) (human VEGF165 [15]): 100%
Relative binding Activity to Ang2 (ELISA, %) (human Ang2 [16]): 100%
Relative binding Activity to VEGF (ELISA, %) (human VEGF165 [17]): 97%
Relative binding Activity to Ang2 (ELISA, %) (human Ang2 [18]): 96%
Relative binding Activity to VEGF (ELISA, %) (human VEGF165 [19]): 102%
Relative binding Activity to Ang2 (ELISA, %) (human Ang2 [20]): 90%
Relative binding Activity to VEGF A (ELISA, %) (human VEGF165 [21]): 98%
Relative binding Activity to Ang2 (ELISA, %) (human Ang2 [22]): 93%
Relative binding Activity to VEGF (ELISA, %) (human VEGF165 [23]): 99%
Relative binding Activity to Ang2 (ELISA, %) (human Ang2 [24]): 89%
Relative binding Activity to VEGF (ELISA, %) (human VEGF165 [25]): 99%
Relative binding Activity to Ang2 (ELISA, %) (human Ang2 [26]): 99%
B1: IEX04-012 (bispecific antibody)
chain: DIQLTQSPSSLSASVGDRVTITCSASQDISNYLNWYQQKPGKAPKVLIYFTSSLHSGVPSRFSGSGSGTDFTLTISSLQPEDFATYYCQQYSTVPWTFGCGTKVEIKGGGGSGGGGSGGGGSGGGGSEVQLVESGGGLVQPGGSLRLSCAASGYDFTHYGMNWVRQAPGKCLEWVGWINTYTGEPTYAADFKRRFTFSLDTSKSTAYLQMNSLRAEDTAVYYCAKYPYYYGTSHWYFDVWGQGTLVTVSSGGGGSGGGGSGGGGSEVQLLESGGGLVQPGGSLRLSCAASGFALDYYAIGWFRQAPGKGLEGVSCISSGEGSTYYADSVKGRFTISRDNSKNTVYLQMNSLRAEDTAVYYCATDSRGDDVACEGLRRNEYDYWGQGTLVTVSS
